Data reported in patent US20250114463A1, “LIVER-TARGETED DRUG AND USE THEREOF” (HANMI PHARM. CO., LTD., priority 2021, published 2025).
Bridges are numbered along the chain shown (N, C = ends). Where no end group is shown, it is not given here. [ ]: non-standard residue; d: D form. The star is where a group is joined. Acetyl(2-(4-imidazolyl)) = O=C(Cc1c[nH]cn1)*; Aib = CC(C)(N)C(=O)O

Tests used:
Test in all cases: cell-based or functional assay
[1] = biological target: human GLP-1 receptor (human, UniProt P43220 24-463)
[2] = biological target: human GCG receptor (human, UniProt P47871 26-477)
Sequence of human GCG receptor (P47871 26-477): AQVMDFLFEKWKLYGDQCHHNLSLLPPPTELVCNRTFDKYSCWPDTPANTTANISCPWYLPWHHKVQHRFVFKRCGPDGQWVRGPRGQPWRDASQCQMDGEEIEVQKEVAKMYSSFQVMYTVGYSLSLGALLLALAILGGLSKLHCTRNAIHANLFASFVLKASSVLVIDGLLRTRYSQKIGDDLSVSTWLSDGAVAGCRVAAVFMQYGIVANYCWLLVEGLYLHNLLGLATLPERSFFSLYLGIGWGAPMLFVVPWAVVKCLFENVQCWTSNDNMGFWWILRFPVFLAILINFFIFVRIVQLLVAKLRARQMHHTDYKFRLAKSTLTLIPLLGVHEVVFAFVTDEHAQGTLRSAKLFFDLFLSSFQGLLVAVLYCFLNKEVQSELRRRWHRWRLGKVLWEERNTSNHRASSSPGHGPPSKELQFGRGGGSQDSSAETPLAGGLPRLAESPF

[3] = biological target: T1, human GIP receptor (human, UniProt P48546 22-466)
T1 sequence (looked up): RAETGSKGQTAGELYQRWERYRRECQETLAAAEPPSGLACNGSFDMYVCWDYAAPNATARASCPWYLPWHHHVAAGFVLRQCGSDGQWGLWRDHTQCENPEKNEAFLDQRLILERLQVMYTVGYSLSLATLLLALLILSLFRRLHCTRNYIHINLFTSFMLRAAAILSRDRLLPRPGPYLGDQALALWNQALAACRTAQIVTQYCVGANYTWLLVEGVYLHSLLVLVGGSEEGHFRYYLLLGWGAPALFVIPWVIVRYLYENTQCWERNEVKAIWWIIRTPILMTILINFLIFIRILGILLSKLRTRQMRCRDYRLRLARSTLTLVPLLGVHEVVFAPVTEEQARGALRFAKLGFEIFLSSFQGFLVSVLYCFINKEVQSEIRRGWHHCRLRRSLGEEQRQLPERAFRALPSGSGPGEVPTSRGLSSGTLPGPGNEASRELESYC

[Acetyl(2-(4-imidazolyl))][Aib]EGTFTSDYSIAMDEIHQKDFVNWLLAQC (bridge 16-20; not fully specified (C-terminus)) [triple agonist of SEQ ID NO: 83]
in vitro Activity Compared to Native Peptide (%), vs GLP-1 [1]: 47.3%
in vitro Activity Compared to Native Peptide (%), vs Glucagon [2]: 1.3%
in vitro Activity Compared to Native Peptide (%), vs GIP [3]: 0.4%

[Acetyl(2-(4-imidazolyl))][Aib]EGTFTSDYSIAMDEIHQKDFVDWLLAEKC (bridge 16-20; not fully specified (C-terminus)) [triple agonist of SEQ ID NO: 91]
in vitro Activity Compared to Native Peptide (%), vs GLP-1 [1]: 31.9%
in vitro Activity Compared to Native Peptide (%), vs Glucagon [2]: 16.8%
in vitro Activity Compared to Native Peptide (%), vs GIP [3]: 0.3%

[Acetyl(2-(4-imidazolyl))][Aib]QGTFTSDYSKYLDEKRQKEFVNWLLAQKC (bridge 16-20; not fully specified (C-terminus)) [triple agonist of SEQ ID NO: 93]
in vitro Activity Compared to Native Peptide (%), vs GLP-1 [1]: 5.7%
in vitro Activity Compared to Native Peptide (%), vs Glucagon [2]: 0.3%
in vitro Activity Compared to Native Peptide (%), vs GIP [3]: 0.7%

[Acetyl(2-(4-imidazolyl))]GEGTFISDLSKYMDEQAVQLFVEWLMAGGPSSGAPPPSHG-NH2 [triple agonist of SEQ ID NO: 12]
in vitro Activity Compared to Native Peptide (%), vs GLP-1 [1]: 0.4%
in vitro Activity Compared to Native Peptide (%), vs Glucagon [2]: < 0.1%
in vitro Activity Compared to Native Peptide (%), vs GIP [3]: < 0.1%

[Acetyl(2-(4-imidazolyl))]GEGTFISDYSIQLDEIAVQDFVEWLLAQKPSSGAPPPSHG-NH2 [triple agonist of SEQ ID NO: 13]
in vitro Activity Compared to Native Peptide (%), vs GLP-1 [1]: < 0.1%
in vitro Activity Compared to Native Peptide (%), vs Glucagon [2]: < 0.1%
in vitro Activity Compared to Native Peptide (%), vs GIP [3]: < 0.1%

[Acetyl(2-(4-imidazolyl))][Aib]EGTFTSDYSIAMDEIHQKDFVDWLLAEC (bridge 16-20; not fully specified (C-terminus)) [triple agonist of SEQ ID NO: 84]
in vitro Activity Compared to Native Peptide (%), vs GLP-1 [1]: 4.2%
in vitro Activity Compared to Native Peptide (%), vs Glucagon [2]: < 0.1%
in vitro Activity Compared to Native Peptide (%), vs GIP [3]: < 0.1%

[Acetyl(2-(4-imidazolyl))][Aib]QGTFTSDYSKYLDEKRQKEFVQWLLDTKC (bridge 16-20; not fully specified (C-terminus)) [triple agonist of SEQ ID NO: 89]
in vitro Activity Compared to Native Peptide (%), vs GLP-1 [1]: 7.1%
in vitro Activity Compared to Native Peptide (%), vs Glucagon [2]: 0.7%
in vitro Activity Compared to Native Peptide (%), vs GIP [3]: < 0.1%

[Acetyl(2-(4-imidazolyl))][Aib]QGTFTSDYSIAMDEIHQKDFVNWLLNTKC (bridge 16-20; not fully specified (C-terminus)) [triple agonist of SEQ ID NO: 94]
in vitro Activity Compared to Native Peptide (%), vs GLP-1 [1]: 0.5%
in vitro Activity Compared to Native Peptide (%), vs Glucagon [2]: < 0.1%
in vitro Activity Compared to Native Peptide (%), vs GIP [3]: < 0.1%

Y[Aib]QGTFTSDYSKYLDEKRAKEFVQWLLDCHPSSGQPPPS (bridge 16-20; not fully specified (C-terminus)) [triple agonist of SEQ ID NO: 97]
in vitro Activity Compared to Native Peptide (%), vs GLP-1 [1]: 10.5%
in vitro Activity Compared to Native Peptide (%), vs Glucagon [2]: 62.8%
in vitro Activity Compared to Native Peptide (%), vs GIP [3]: 2.6%

H[Aib]QGTFTSDVSKYLDGQAAQEFVAWLLAGC (not fully specified (C-terminus)) [triple agonist of SEQ ID NO: 9]
in vitro Activity Compared to Native Peptide (%), vs GLP-1 [1]: 32.1%
in vitro Activity Compared to Native Peptide (%), vs Glucagon [2]: 0.13%
in vitro Activity Compared to Native Peptide (%), vs GIP [3]: < 0.1%

Y[Aib]QGTFTSDYSKYLDEKRAKEFVQWLLCHHPSSGQPPPS (bridge 16-20; not fully specified (C-terminus)) [triple agonist of SEQ ID NO: 95]
in vitro Activity Compared to Native Peptide (%), vs GLP-1 [1]: 2.1%
in vitro Activity Compared to Native Peptide (%), vs Glucagon [2]: 0.4%
in vitro Activity Compared to Native Peptide (%), vs GIP [3]: < 0.1%

Y[Aib]QGTFTSDYSKALDEKAAKEFVNWLLDHHPSSGQPPPSC (bridge 16-20; not fully specified (C-terminus)) [triple agonist of SEQ ID NO: 98]
in vitro Activity Compared to Native Peptide (%), vs GLP-1 [1]: 28.1%
in vitro Activity Compared to Native Peptide (%), vs Glucagon [2]: 8.2%
in vitro Activity Compared to Native Peptide (%), vs GIP [3]: 47.1%

[Acetyl(2-(4-imidazolyl))][Aib]QGTFTSDYSIAMDEIHQKDFVNWLLNTC (bridge 16-20; not fully specified (C-terminus)) [triple agonist of SEQ ID NO: 87]
in vitro Activity Compared to Native Peptide (%), vs GLP-1 [1]: 0.9%
in vitro Activity Compared to Native Peptide (%), vs Glucagon [2]: < 0.1%
in vitro Activity Compared to Native Peptide (%), vs GIP [3]: < 0.1%

[Acetyl(2-(4-imidazolyl))][Aib]EGTFTSDYSIAMDEIHQKDFVNWLLAQKC (bridge 16-20; not fully specified (C-terminus)) [triple agonist of SEQ ID NO: 90]
in vitro Activity Compared to Native Peptide (%), vs GLP-1 [1]: 7.4%
in vitro Activity Compared to Native Peptide (%), vs Glucagon [2]: < 0.1%
in vitro Activity Compared to Native Peptide (%), vs GIP [3]: < 0.1%

Y[Aib]QGTFTSDYSKALDEKAAKEFVNWLLDQHPSSGQPPPSC (bridge 16-20; not fully specified (C-terminus); also: ring type not given here) [triple agonist of SEQ ID NO: 101]
in vitro Activity Compared to Native Peptide (%), vs GLP-1 [1]: 23.2%
in vitro Activity Compared to Native Peptide (%), vs Glucagon [2]: 13.9%
in vitro Activity Compared to Native Peptide (%), vs GIP [3]: 40.1%

[Acetyl(2-(4-imidazolyl))][Aib]QGTFTSDYSKYLDEKRQKEFVQWLLNTKC (bridge 16-20; not fully specified (C-terminus)) [triple agonist of SEQ ID NO: 88]
in vitro Activity Compared to Native Peptide (%), vs GLP-1 [1]: 9.6%
in vitro Activity Compared to Native Peptide (%), vs Glucagon [2]: 0.3%
in vitro Activity Compared to Native Peptide (%), vs GIP [3]: < 0.1%

[Acetyl(2-(4-imidazolyl))]GEGTFTSDLSKYLDSRRQQLFVQWLKAGGPSSGAPPPSHG-NH2 [triple agonist of SEQ ID NO: 11]
in vitro Activity Compared to Native Peptide (%), vs GLP-1 [1]: 1.4%
in vitro Activity Compared to Native Peptide (%), vs Glucagon [2]: < 0.1%
in vitro Activity Compared to Native Peptide (%), vs GIP [3]: < 0.1%

Y[Aib]QGTFTSDYSKYLDEKRAKEFVQWLLDHCPSSGQPPPS-NH2 (bridge 16-20) [triple agonist of SEQ ID NO: 96]
in vitro Activity Compared to Native Peptide (%), vs GLP-1 [1]: 34.4%
in vitro Activity Compared to Native Peptide (%), vs Glucagon [2]: 195%
in vitro Activity Compared to Native Peptide (%), vs GIP [3]: 5.2%

[Acetyl(2-(4-imidazolyl))][Aib]QGTFTSDYSIAMDEIHQKDFVNWLLAQKC (bridge 16-20; not fully specified (C-terminus)) [triple agonist of SEQ ID NO: 92]
in vitro Activity Compared to Native Peptide (%), vs GLP-1 [1]: 0.8%
in vitro Activity Compared to Native Peptide (%), vs Glucagon [2]: < 0.1%
in vitro Activity Compared to Native Peptide (%), vs GIP [3]: 0.4%

Y[Aib]QGTFTSDYSKALDEKAAKEFVQWLLDQHPSSGQPPPSC (bridge 16-20; not fully specified (C-terminus); also: ring type not given here) [triple agonist of SEQ ID NO: 100]
in vitro Activity Compared to Native Peptide (%), vs GLP-1 [1]: 42.2%
in vitro Activity Compared to Native Peptide (%), vs Glucagon [2]: 12.7%
in vitro Activity Compared to Native Peptide (%), vs GIP [3]: 118%

[Acetyl(2-(4-imidazolyl))][Aib]QGTFTSDYSIAMDEIHQKDFVNWLLAQC (bridge 16-20; not fully specified (C-terminus)) [triple agonist of SEQ ID NO: 85]
in vitro Activity Compared to Native Peptide (%), vs GLP-1 [1]: 4.3%
in vitro Activity Compared to Native Peptide (%), vs Glucagon [2]: < 0.1%
in vitro Activity Compared to Native Peptide (%), vs GIP [3]: 0.3%

[Acetyl(2-(4-imidazolyl))][Aib]QGTFTSDYSKYLDEKRQKEFVNWLLAQC (bridge 16-20; not fully specified (C-terminus)) [triple agonist of SEQ ID NO: 86]
in vitro Activity Compared to Native Peptide (%), vs GLP-1 [1]: 28.4%
in vitro Activity Compared to Native Peptide (%), vs Glucagon [2]: 0.4%
in vitro Activity Compared to Native Peptide (%), vs GIP [3]: 0.2%

Y[Aib]QGTFTSDYSKALDEKAAKDFVNWLLDQHPSSGQPPPSC (bridge 16-20; not fully specified (C-terminus); also: ring type not given here) [triple agonist of SEQ ID NO: 102]
in vitro Activity Compared to Native Peptide (%), vs GLP-1 [1]: 23.3%
in vitro Activity Compared to Native Peptide (%), vs Glucagon [2]: 29.5%
in vitro Activity Compared to Native Peptide (%), vs GIP [3]: 58%

H[Aib]QGTFTSDVSKYLDGQAAQEFVAWLLAGGGPSSGAPPPSC-NH2 [triple agonist of SEQ ID NO: 10]
in vitro Activity Compared to Native Peptide (%), vs GLP-1 [1]: 46%
in vitro Activity Compared to Native Peptide (%), vs Glucagon [2]: < 0.1%
in vitro Activity Compared to Native Peptide (%), vs GIP [3]: < 0.1%

Y[Aib]QGTFTSDYSKALDEKAAKDFVNWLLDHHPSSGQPPPSC (bridge 16-20; not fully specified (C-terminus)) [triple agonist of SEQ ID NO: 99]
in vitro Activity Compared to Native Peptide (%), vs GLP-1 [1]: 20.9%
in vitro Activity Compared to Native Peptide (%), vs Glucagon [2]: 14.9%
in vitro Activity Compared to Native Peptide (%), vs GIP [3]: 57.7%
